The DeepSol protein solubility set

Experiment: soluble on expression in E. coli; label from the status in PepcDB or PDB records
For “MALHLHRAERTDLLADGLGALLADPQPDPFAQELVLVAARGVERWLSQRLSLVLGCGPGRADGVCAGIAFRNPQSLIAEITGTLDDDPWSPEALAWPLLAVIDASLDEPWCRTLASHLGHFATTDAEAELRRGRRYSVARRLAGLFASYARQRPGLLAAWLDGDLGELPGDLAWQPPLWRALVTTVGADPPHVRHDKTIARLRDGPADLPARLSLFGHTRLACTDVQLLDALAVHHDLHLWLPHPSDELWRALAGFQGADGLLPRRQDTSRRAAQHPLLETLGRDVRELQRALPAARATDEFLGATTKPDTLLGWLQADIAGNAPRPAGRSLSDADRSVQVHACHGPARQIDVLREVLLGLLEDDPTLQPRDIVVMCPDIDTYAPLIVAGFGLGEVAGDCHPAHRLRVRLADRALTQTNPLLSVAAELLTIAETRATASQLLNLAQAAPVRAKFGFADDDLDTITTWVRESNIRWGFDPTHRRRYGLDTVVHNTWRFGLDRILTGVAMSEDSQAWLDTALPLDDVGSNRVELAGRLAEFVERLHHVVGGLSGARPLVAWLDALATGIDLLTACNDGWQRAQVQREFADVLARAGSRAAPLLRLPDVRALLDAQLAGRPTRANFRTGTLTVCTMVPMRSVPHRVVCLVGLDDGVFPRLSHPDGDDVLAREPMTGERDIRSEDRQLLLDAIGAATQTLVITYTGADERTGQPRPPAVPLAELLDALDQTTSAPVRERILVTHPLQPFDRKNVTPGALLGAKPFTFDPAALAAAQAAAGKRCPPTAFISGRLPAPPAADVTLADLLDFFKDPVKGFFRALDYTLPWDVDTVEDSIPVQVDALAEWTVGERMLRDMLRGLHPDDAAHSEWRRGTLPPGRLGVRRAKEIRNRARDLAAAALAHRDGHGQAHDVDVDLGDGRRLSGTVTPVFGGRTVSVTYSKLAPKHVLPAWIGLVTLAAQEPGREWSALCIGRSKTRNHIARRLFVPPPDPVAVLRELVLLYDAGRREPLPLPLKTSCAWAQARRDGQDPYPPARECWQTNRFRPGDDDAPAHVRAWGPRAPFEVLLGKPRAGEEVAGEETRLGALAARLWLPLLAAEGSV”, the “soluble on expression in E. coli” value was “soluble”. In the case of “MALMSDKFLSIVIPAYNSEKYIEKNLMFLSRQTSNNFEVIVVDDGSTDNTCEVSEACLENFKINHRVIRCEENRGQSVARNIGINYSRGKYILFLDSDDFAENNLVQILERNMFNEPDIVFFDYKRIKEGDSVNVNIAQNFEFGKIKSGEEVFNAYKDNKIRLWTGSLVYNKEFLNKNKLRFLEGAHGAEDLNFIFKALLSSKKVRGIEDSLVFYCQRGDSLTNNPDIYKNITVVESMEDVAKFIDENKLDKKLKEAIEKEFTCEHIMYQILGYLNSETKKDTLSVLKNKNVKKYLKKATIKTNRYGRSMYTYMKMAAYFPNLFIKTYLKNTGKLEHHHHHH”, the “soluble on expression in E. coli” value is reported as “soluble”. For “MALSKFNLFIGDILFNTLTGYAIKLESWEIEKLRKGVVPEHLKDIIEEGFSATDEDLDEEIEKFLRKPVLEPTLVLTYNCNFDCIYCFQKGFRKNISVSDKVTRGFVNYIRKNEKGRKVRVTYFGGEPILQLRKIEEISRELSDLKYSFSVVTNGSLLTRKIVERLIPLGLTHVQITLDGPKEVHDKRRFFVSGEGTFDVIVKNLKEIQDMVKVVLRINIDVKNLNEIGELLNELKMEGINRVRLDPHLVHSNVFRNEWWDFTISSKAEGDVMVKFWEIARKYGFEVPQDVLRLGLCVAYSSEDIVVDPEGNIYPCWAFTGNPLYVKGKLEEDGSVKVTNKSLWWKVKIEDKCRECPFLPLCMGGCKFLATINGDDCKREAYEKIVRSIRWVMG”, the “soluble on expression in E. coli” value was “not soluble”. In the case of “MAMNGTITTWFKDKGFGFIKDENGDNRYFHVIKVANPDLIKKDAAVTFEPTTNNKGLSAYAVKVVPESKYIYIAGERLKLTSIKSYLVYSEEVPADTRIDKENTVLSVGVLMNSIRPKSVAEPDEIRSLKKLAITTFQGTTLIFSEDEIDVDATVKLLKVLEHHHHHH”, the “soluble on expression in E. coli” value is reported as “soluble”. In the case of “MAMNLLEDWCRGMEVDIHRSLLVTGIPEDCGQAEIEETLNGVLSPLGPYRVLNKIFVREENVKAALIEVGEGVNLSTIPREFPGRGGVWRVVCRDPTQDAEFLKNLNEFLDAEGRTWEDVVRLLQLNHPTLSQNQHQPPENWAEALGVLLGAVVQIIFCMDAEIRSREEARAQEAAEFEEMAAWALAAGRKVKKEPGLAAEVGSALKAETPNNWNATEDQHEPTKPLVRRAGAKSRSRRKKQKKNSRQEAVPWKKPKGINSNSTANLEDPEVGDAESMAISEPIKGSRKPCVNKEELALKKPMAKCAWKGPREPPQDARAEAESPGGASESDQDGGHESPPKKKAVAWVSAKNPAPMRKKKKVSLGPVSYVLVDSEDGRKKPVMPKKGPGSRREASDQKAPRGQQPAEATASTSRGPKAKPEGSPRRATNESRKV”, the “soluble on expression in E. coli” value is reported as “soluble”. In the case of “MAMSIELRTKYGQIDISNEVIAMVAGGAAVDCYGIVGSKNQIKDGLTEILRKENFSRGVQVRQEGEQIHIDMYIIVSYGTKISEVAHNVQTKVKYTVNQTIGLAVDSVNIYVQGVRVTNPLEHHHHHH”, the “soluble on expression in E. coli” value is reported as “not soluble”.
